Tests used:
AncSZ = test: phosphorylation enrichment, bacterial display (enrichment ratio); higher = better substrate or ligand; peptides without Tyr show the background
EPHB1 = EPHB1 (UniProt P54762); test: as above
EPHB2 = EPHB2 (UniProt P29323); test: as above
FGFR1 = FGFR1 (UniProt P11362); test: as above
FGFR3 = FGFR3 (UniProt P22607); test: as above
Fer (mouse) = test: as above
Fes = Fes (UniProt P07332); test: as above
Fyn = Fyn (UniProt P06241); test: as above
Hck = Hck (UniProt P08631); test: as above
Jak2 = Jak2 (UniProt O60674); test: as above
Jak2, sequence (O60674 whole entry, looked up): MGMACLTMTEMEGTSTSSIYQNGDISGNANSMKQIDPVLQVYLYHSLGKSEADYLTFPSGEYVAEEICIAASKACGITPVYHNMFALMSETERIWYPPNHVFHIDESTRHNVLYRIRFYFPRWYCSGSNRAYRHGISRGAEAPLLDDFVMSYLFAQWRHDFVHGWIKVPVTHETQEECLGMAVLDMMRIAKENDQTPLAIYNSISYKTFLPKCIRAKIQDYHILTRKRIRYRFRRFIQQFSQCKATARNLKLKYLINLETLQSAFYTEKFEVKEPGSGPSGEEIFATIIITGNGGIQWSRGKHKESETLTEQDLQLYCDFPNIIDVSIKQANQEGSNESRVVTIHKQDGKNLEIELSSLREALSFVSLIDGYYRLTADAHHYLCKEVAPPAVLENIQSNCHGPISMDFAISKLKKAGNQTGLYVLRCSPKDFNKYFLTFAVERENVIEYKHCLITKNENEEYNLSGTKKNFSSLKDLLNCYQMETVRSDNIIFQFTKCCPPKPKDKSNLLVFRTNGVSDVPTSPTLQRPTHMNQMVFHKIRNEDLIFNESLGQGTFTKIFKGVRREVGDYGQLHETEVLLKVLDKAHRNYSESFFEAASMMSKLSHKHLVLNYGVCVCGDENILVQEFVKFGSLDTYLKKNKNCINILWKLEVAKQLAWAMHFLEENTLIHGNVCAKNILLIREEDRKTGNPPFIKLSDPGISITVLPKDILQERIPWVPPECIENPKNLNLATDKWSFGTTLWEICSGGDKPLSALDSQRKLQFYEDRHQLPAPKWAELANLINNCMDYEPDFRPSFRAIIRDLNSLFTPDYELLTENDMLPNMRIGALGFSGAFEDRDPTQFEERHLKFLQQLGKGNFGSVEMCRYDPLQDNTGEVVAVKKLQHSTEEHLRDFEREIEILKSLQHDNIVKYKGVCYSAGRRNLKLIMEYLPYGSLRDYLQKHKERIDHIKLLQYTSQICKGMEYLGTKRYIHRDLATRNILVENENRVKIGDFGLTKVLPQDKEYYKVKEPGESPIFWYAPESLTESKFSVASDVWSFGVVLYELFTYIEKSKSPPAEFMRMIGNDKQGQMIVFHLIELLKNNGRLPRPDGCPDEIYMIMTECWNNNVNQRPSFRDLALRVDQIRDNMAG

MERTK = MERTK (UniProt Q12866); test: as above
c-Abl (mouse) = test: as above
c-Src = test: as above
Grb2 SH2 = Grb2 SH2 (UniProt P62993); test: SH2 binding enrichment of the phosphorylated peptide, bacterial display (enrichment ratio); higher = better substrate or ligand; peptides without Tyr show the background
SHP2-C SH2 = test: as above
c-Src SH2 = test: as above
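For SH2 binding enrichment of the phosphorylated peptide, bacterial display in this document: peptide library displayed on the E. coli surface as eCPX fusions, selected cells deep-sequenced, score is each peptide's frequency after selection divided by its frequency in the input.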
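For phosphorylation enrichment, bacterial display in this document: 11-residue human phosphosite peptides and single-mutation variants displayed on the E. coli surface, counted by deep sequencing, each peptide's frequency after selection divided by its frequency in the unselected input library; frequency after pTyr selection over input frequency; kinase dosed for 20-30% of maximal phosphorylation in three min.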

EPHB2, sequence (P29323 whole entry, looked up): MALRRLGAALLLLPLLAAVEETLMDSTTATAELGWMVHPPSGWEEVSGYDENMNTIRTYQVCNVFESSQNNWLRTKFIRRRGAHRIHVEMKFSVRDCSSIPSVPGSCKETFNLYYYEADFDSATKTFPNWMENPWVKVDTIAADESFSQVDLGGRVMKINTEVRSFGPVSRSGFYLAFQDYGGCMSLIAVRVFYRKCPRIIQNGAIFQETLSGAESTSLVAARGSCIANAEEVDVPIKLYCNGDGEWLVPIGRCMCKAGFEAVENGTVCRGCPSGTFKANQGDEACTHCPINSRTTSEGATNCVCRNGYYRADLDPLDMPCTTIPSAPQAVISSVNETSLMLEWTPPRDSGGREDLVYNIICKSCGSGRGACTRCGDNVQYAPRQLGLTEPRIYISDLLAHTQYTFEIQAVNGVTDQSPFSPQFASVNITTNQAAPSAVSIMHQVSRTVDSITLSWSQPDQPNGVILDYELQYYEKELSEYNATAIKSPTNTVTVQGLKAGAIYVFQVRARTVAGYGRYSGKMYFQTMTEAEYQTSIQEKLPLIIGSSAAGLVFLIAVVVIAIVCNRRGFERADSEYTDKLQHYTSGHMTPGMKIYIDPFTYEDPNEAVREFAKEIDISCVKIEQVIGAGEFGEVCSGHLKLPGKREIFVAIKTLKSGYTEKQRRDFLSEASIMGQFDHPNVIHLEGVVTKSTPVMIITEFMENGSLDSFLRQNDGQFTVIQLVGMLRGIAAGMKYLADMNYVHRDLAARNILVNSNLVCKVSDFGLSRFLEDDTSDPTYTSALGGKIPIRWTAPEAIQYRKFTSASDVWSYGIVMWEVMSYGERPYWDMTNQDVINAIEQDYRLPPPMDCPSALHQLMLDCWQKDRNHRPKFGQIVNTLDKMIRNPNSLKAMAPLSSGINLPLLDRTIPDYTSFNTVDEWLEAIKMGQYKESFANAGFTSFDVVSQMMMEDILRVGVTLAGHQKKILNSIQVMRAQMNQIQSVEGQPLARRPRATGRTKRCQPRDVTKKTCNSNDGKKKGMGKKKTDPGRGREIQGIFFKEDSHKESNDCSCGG
FGFR1, sequence (P11362 whole entry, looked up): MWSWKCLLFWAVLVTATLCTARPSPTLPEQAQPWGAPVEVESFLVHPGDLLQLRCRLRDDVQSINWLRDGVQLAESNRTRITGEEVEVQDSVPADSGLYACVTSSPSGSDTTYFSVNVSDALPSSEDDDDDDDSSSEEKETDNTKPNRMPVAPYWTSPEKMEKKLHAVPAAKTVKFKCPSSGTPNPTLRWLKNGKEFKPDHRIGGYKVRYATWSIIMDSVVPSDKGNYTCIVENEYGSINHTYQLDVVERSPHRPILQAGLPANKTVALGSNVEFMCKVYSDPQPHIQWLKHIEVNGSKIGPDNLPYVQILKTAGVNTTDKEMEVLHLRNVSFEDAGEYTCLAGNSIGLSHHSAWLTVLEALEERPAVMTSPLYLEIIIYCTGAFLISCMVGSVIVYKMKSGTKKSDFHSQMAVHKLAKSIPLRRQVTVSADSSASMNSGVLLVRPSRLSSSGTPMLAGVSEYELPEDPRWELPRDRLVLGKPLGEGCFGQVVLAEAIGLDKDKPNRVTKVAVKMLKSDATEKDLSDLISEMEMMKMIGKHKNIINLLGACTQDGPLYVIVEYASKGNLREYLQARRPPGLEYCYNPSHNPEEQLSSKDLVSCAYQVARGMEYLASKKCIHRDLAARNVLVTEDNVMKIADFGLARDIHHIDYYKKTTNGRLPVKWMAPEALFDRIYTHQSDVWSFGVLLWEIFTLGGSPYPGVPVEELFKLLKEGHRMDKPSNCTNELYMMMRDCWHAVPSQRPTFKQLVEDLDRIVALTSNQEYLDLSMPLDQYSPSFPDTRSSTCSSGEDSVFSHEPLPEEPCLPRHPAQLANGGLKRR
EPHB1, sequence (P54762 whole entry, looked up): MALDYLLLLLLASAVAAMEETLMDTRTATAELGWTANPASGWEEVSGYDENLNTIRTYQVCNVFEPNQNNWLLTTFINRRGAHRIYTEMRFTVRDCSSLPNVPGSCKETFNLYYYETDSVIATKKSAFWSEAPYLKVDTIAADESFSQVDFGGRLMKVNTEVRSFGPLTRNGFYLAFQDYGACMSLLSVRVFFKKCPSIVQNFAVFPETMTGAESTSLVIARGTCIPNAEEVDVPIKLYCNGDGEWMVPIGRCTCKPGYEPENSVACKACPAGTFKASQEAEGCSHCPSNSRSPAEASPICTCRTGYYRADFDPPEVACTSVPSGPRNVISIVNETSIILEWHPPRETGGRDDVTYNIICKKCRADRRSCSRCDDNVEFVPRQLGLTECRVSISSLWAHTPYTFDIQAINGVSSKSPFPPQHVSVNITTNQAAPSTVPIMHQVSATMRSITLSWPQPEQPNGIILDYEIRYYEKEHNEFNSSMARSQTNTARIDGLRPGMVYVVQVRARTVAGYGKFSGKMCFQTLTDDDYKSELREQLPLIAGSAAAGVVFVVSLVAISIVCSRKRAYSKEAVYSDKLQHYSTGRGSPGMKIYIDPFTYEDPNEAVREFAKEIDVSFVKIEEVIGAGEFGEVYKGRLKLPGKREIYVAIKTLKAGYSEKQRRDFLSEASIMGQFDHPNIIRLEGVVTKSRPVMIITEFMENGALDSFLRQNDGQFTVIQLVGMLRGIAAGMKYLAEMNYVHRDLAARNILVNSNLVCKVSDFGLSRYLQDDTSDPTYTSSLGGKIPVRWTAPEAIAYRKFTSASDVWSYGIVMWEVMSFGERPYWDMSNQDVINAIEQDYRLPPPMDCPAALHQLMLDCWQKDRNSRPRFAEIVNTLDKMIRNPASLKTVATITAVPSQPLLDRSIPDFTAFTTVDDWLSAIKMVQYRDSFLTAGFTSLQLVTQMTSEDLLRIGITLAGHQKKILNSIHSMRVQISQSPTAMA
Fes, sequence (P07332 whole entry, looked up): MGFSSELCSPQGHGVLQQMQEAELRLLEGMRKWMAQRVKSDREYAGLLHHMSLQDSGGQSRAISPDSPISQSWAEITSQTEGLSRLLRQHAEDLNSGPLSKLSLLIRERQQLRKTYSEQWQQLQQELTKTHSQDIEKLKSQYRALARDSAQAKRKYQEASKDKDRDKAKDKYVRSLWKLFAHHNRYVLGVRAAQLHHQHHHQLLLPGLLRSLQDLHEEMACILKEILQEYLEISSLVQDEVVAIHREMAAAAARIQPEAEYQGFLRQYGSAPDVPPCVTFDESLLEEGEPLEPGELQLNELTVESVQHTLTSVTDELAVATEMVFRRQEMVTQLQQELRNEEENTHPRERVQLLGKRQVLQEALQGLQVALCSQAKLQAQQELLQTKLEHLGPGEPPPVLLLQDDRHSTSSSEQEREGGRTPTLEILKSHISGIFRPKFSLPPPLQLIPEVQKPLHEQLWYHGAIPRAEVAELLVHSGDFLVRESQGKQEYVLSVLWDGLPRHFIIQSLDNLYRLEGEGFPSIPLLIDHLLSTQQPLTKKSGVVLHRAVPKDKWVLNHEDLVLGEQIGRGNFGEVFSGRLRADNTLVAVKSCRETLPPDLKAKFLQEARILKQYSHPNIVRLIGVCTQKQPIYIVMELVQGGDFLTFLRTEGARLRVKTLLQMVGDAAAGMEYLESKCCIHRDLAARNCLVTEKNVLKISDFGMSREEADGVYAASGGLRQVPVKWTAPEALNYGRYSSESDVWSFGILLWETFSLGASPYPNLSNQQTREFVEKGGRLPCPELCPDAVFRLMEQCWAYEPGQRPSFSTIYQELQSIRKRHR

Row | Sequence | SH2 binding enrichment (Grb2 SH2) | SH2 binding enrichment (SHP2-C SH2) | SH2 binding enrichment (c-Src SH2) | phosphorylation enrichment (AncSZ) | phosphorylation enrichment (EPHB1) | phosphorylation enrichment (EPHB2) | phosphorylation enrichment (FGFR1) | phosphorylation enrichment (FGFR3) | phosphorylation enrichment (Fer (mouse)) | phosphorylation enrichment (Fes) | phosphorylation enrichment (Fyn) | phosphorylation enrichment (Hck) | phosphorylation enrichment (Jak2) | phosphorylation enrichment (MERTK) | phosphorylation enrichment (c-Abl (mouse)) | phosphorylation enrichment (c-Src)
1 | KSVVTYSPTTG [ITGB3BP_Y32_I30V] | 0.814 | 0.668 | 0.397 | 0.478 | 0.427 | 0.416 | 0.375 | 0.442 | 0.369 | 0.527 | 0.401 | 0.372 | 0.489 | 0.423 | 0.618 | 0.431
2 | KVDKECEVRVR [GHR_Y226_Y226C] | 0.889 | 0.842 | 0.575 | 0.739 | 0.513 | 0.569 | 0.502 | 0.556 | 0.478 | 0.832 | 0.421 | 0.414 | 0.821 | 0.355 | 0.638 | 0.446
3 | KVFRVYQGQQP [MUTYH_Y494] | 0.849 | 0.55 | 0.52 | 0.569 | 0.308 | 0.415 | 0.439 | 0.494 | 0.37 | 0.608 | 0.374 | 0.388 | 0.484 | 0.344 | 0.413 | 0.375
4 | KVMANYVYKAG [MAML2_Y513_M514V] | 0.874 | 1.28 | 0.723 | 0.465 | 0.395 | 0.37 | 0.398 | 0.452 | 0.358 | 0.551 | 0.339 | 0.386 | 0.514 | 0.361 | 0.453 | 0.355
5 | KVNKIYFPDFI [LIG3_Y767_YF] | 0.946 | 0.844 | 0.692 | 0.799 | 0.427 | 0.399 | 1.24 | 1.26 | 0.4 | 0.855 | 0.455 | 0.543 | 0.712 | 0.473 | 0.566 | 0.478
6 | KVPELYEIHTE [BCR_Y554_K558T] | 0.969 | 0.696 | 0.525 | 1.19 | 0.94 | 0.945 | 0.578 | 0.68 | 0.74 | 0.984 | 0.629 | 0.745 | 0.827 | 0.508 | 0.712 | 0.546
7 | KYACSYTPVKA [FLNB_Y708_T703K] | 1.05 | 2.91 | 1.28 | 0.689 | 0.473 | 0.417 | 0.576 | 0.697 | 0.438 | 0.758 | 0.387 | 0.483 | 0.598 | 0.414 | 0.557 | 0.432
8 | KYLENYLNRLL [PLD2_Y169] | 1.46 | 1.44 | 1.27 | 0.832 | 0.523 | 0.483 | 0.459 | 0.577 | 0.609 | 0.989 | 0.45 | 0.414 | 0.859 | 0.478 | 0.809 | 0.475
9 | LAGRYYALRSM [CKB_Y174_K177R] | 1.38 | 2.86 | 1.73 | 0.807 | 0.701 | 0.688 | 0.751 | 0.763 | 0.5 | 0.79 | 0.524 | 0.708 | 1.66 | 3.63 | 0.684 | 0.581
10 | LDLPGYCPLRE [CCDC116_Y291] | 0.754 | 0.736 | 0.611 | 1.55 | 1.09 | 0.668 | 0.916 | 1.36 | 1.09 | 1.97 | 0.96 | 1.1 | 1.64 | 0.767 | 1.28 | 0.773
11 | LDYNEYFRDLN [HPRT1_Y198] | 0.727 | 0.861 | 0.645 | 1.81 | 0.741 | 0.753 | 1.39 | 1.28 | 0.555 | 1.33 | 0.828 | 0.661 | 1.68 | 0.519 | 1.13 | 0.649
12 | LEFNEYFRDLN [HPRT1_Y198_D194E_YF] | 0.926 | 0.743 | 0.488 | 2.14 | 1.21 | 1.15 | 1.09 | 1.95 | 0.769 | 1.66 | 0.992 | 0.828 | 1.25 | 0.795 | 0.805 | 0.809
13 | LEIETCRRLLD [KRT12_Y429_Y429C] | 0.883 | 0.64 | 0.648 | 1.2 | 0.939 | 0.913 | 0.722 | 1.2 | 0.474 | 1.33 | 0.635 | 0.759 | 1.07 | 0.411 | 1.01 | 0.415
14 | LEQDEYALHSH [HADHB_Y244_R247H] | 0.744 | 0.561 | 0.452 | 1.45 | 0.882 | 0.669 | 0.847 | 0.805 | 0.642 | 1.24 | 0.887 | 0.598 | 1.2 | 0.578 | 1.1 | 0.665
15 | LERYIYNRQEF [HLA-DPB1_Y59_E62Q] | 0.812 | 0.703 | 0.477 | 1.05 | 0.475 | 0.856 | 0.624 | 0.605 | 0.772 | 1.01 | 0.819 | 1.32 | 0.449 | 0.413 | 0.415 | 1.24
16 | LEVPLYKNGVK [CPS1_Y1069_A1065E] | 0.845 | 0.491 | 0.472 | 1.28 | 0.715 | 0.43 | 0.944 | 1.11 | 0.66 | 0.997 | 0.759 | 0.655 | 0.643 | 0.625 | 0.693 | 0.321
17 | LFEDRYLLGPS [ASS1_Y87_T91P_YF] | 0.965 | 0.515 | 0.552 | 1.07 | 0.857 | 0.872 | 0.679 | 1.12 | 0.634 | 1.42 | 0.793 | 0.804 | 1.73 | 0.58 | 1.07 | 0.689
18 | LFEDRYLLGTS [ASS1_Y87_YF] | 0.918 | 0.537 | 0.529 | 2.21 | 2.81 | 1.98 | 1.26 | 2.45 | 1.12 | 1.8 | 1.29 | 1.12 | 0.885 | 0.863 | 0.41 | 0.258
19 | LFIGQYSGKKE [L1CAM_Y1229_S1224L] | 0.924 | 0.745 | 0.843 | 1.41 | 0.984 | 1.11 | 1.02 | 1.13 | 0.901 | 2.22 | 1.07 | 1.02 | 1.77 | 0.972 | 1.07 | 1.12
20 | LFSLGYHQSLW [GANAB_Y396_R400L] | 0.98 | 0.59 | 0.61 | 0.827 | 0.627 | 0.702 | 0.51 | 0.786 | 0.474 | 0.986 | 0.475 | 0.475 | 0.7 | 0.535 | 0.666 | 0.42
21 | LKETGYVVERP [BCLAF1_Y466] | 0.862 | 0.68 | 0.501 | 0.768 | 0.494 | 0.278 | 0.443 | 0.609 | 0.321 | 0.807 | 0.434 | 0.399 | 0.553 | 0.438 | 0.469 | 0.411

Further lines, with some results ahead:

Row | SH2 binding enrichment (Grb2 SH2) | SH2 binding enrichment (SHP2-C SH2) | SH2 binding enrichment (c-Src SH2) | Sequence | phosphorylation enrichment (AncSZ) | phosphorylation enrichment (EPHB1) | phosphorylation enrichment (EPHB2) | phosphorylation enrichment (FGFR1) | phosphorylation enrichment (FGFR3) | phosphorylation enrichment (Fer (mouse)) | phosphorylation enrichment (Fes) | phosphorylation enrichment (Fyn) | phosphorylation enrichment (Hck) | phosphorylation enrichment (Jak2) | phosphorylation enrichment (MERTK) | phosphorylation enrichment (c-Abl (mouse)) | phosphorylation enrichment (c-Src)
22 | 0.891 | 0.715 | 0.497 | KSSDVYVSFDF [SORL1_Y136_YF] | 1.21 | 1.73 | 1.11 | 3.78 | 2.81 | 4.79 | 1.22 | 5.77 | 3.02 | 0.983 | 3.34 | 0.935 | 4.3
23 | 2.24 | 0.706 | 0.444 | KVGNEYVNKGQ [MYH7_Y410_T412N] | 0.581 | 0.337 | 0.553 | 0.492 | 0.391 | 0.404 | 0.541 | 0.412 | 0.327 | 0.424 | 0.373 | 0.422 | 0.428
24 | 0.811 | 0.653 | 0.564 | KVVQEYERVII [NPHS2_Y131] | 1.09 | 3.17 | 2.79 | 0.633 | 0.719 | 3.84 | 0.956 | 0.485 | 0.563 | 0.801 | 0.435 | 0.757 | 0.457
25 | 0.812 | 1.17 | 0.386 | LAAAKYKLNVD [SMARCA2_Y1190] | 0.444 | 0.426 | 0.336 | 0.322 | 0.556 | 0.52 | 0.766 | 0.262 | 0.181 | 0.42 | 0.309 | 0.593 | 0.489
26 | 1.02 | 1.3 | 0.876 | LFLACYCIGGG [UBD_Y161] | 1.22 | 0.803 | 1.12 | 0.764 | 1.29 | 0.657 | 2.71 | 0.72 | 0.562 | 1.38 | 0.483 | 0.908 | 0.545
27 | 0.854 | 0.596 | 0.536 | LFMGDYVGRGY [PPP2CA_Y86_D88G] | 1.53 | 2.15 | 1.72 | 1.17 | 1.19 | 0.713 | 1.21 | 1.37 | 1.75 | 2.97 | 0.847 | 0.953 | 1.53
28 | 0.669 | 0.52 | 0.571 | LGEGSYGKVKE [STK11_Y60] | 1.75 | 1.29 | 0.868 | 1.21 | 0.783 | 0.574 | 1.5 | 0.939 | 0.862 | 1.58 | 0.887 | 1.12 | 0.863
29 | 0.851 | 0.689 | 1.28 | LGIDRYHAIVF [NPSR1_Y147_S143G_YF] | 2.59 | 1.22 | 1.41 | 1.55 | 1.37 | 1.04 | 1.82 | 0.732 | 0.942 | 2.47 | 1.52 | 1.31 | 1.11
30 | 1.02 | 0.909 | 0.725 | LHNLFYQLEAE [PKP2_Y616_S615F] | 2.35 | 1.35 | 1.9 | 1.02 | 1.07 | 1.66 | 2.87 | 8.59 | 2.2 | 2.4 | 1.6 | 2.03 | 10.4
31 | 0.664 | 0.445 | 0.443 | LHSEAYLKYIE [PBRM1_Y1610] | 1.16 | 0.753 | 1.2 | 0.633 | 0.743 | 0.665 | 0.994 | 0.831 | 0.684 | 1.55 | 0.678 | 0.9 | 0.941
32 | 0.828 | 0.729 | 5.87 | LIEQAYDNPHE [PRPF8_Y871] | 1.12 | 0.638 | 0.824 | 0.566 | 0.695 | 0.602 | 1.16 | 0.645 | 0.86 | 0.811 | 0.43 | 0.767 | 0.472
33 | 0.77 | 0.794 | 0.721 | LKALHYMVQTS [SACS_Y3367] | 0.808 | 0.546 | 0.512 | 0.39 | 0.459 | 0.428 | 0.858 | 0.362 | 0.43 | 0.653 | 0.385 | 0.533 | 0.398
